Values joined by “and” are separate entries in the source; they are usually repeats but may differ in a detail not shown here. Equal entries are not always repeated.
Tests used:
[1] = target: hemagglutinin (HA) on live influenza A virus A/California/4/09 H1N1 (Influenza A virus A/California/04/2009 (H1N1)); test: cell-based or functional assay
[2] = target: hemagglutinin (HA) on live influenza A virus A/Solomon Islands/3/06 H1N1 (Influenza A virus A/Solomon Islands/3/2006 (H1N1)); test: cell-based or functional assay
[3] = target: hemagglutinin (HA) on live influenza A virus A/Wisconsin/67/05 H3N2 (Influenza A virus A/Wisconsin/67/2005 (H3N2)); test: cell-based or functional assay
[4] = target: recombinant homotrimeric HA, A/Anhui/1/05 H5N1 (Influenza A virus A/Anhui/1/05 (H5N1)); test: trimeric HA microarray, transfection set 1
[5] = target: recombinant homotrimeric HA, A/California/4/09 H1N1 (Influenza A virus A/California/4/09 (H1N1)); test: trimeric HA microarray, transfection set 1
[6] = target: recombinant homotrimeric HA, A/Egypt/3300-NAMRU3/08 H5N1 (Influenza A virus A/Egypt/3300-NAMRU3/08 (H5N1)); test: trimeric HA microarray, transfection set 1
[7] = target: recombinant homotrimeric HA, A/Hong Kong/1073/99 H9N2 (Influenza A virus A/Hong Kong/1073/99 (H9N2)); test: trimeric HA microarray, transfection set 1
[8] = target: recombinant homotrimeric HA, A/Hong Kong/2108/03 H9N2 (Influenza A virus A/Hong Kong/2108/03 (H9N2)); test: trimeric HA microarray, transfection set 1
[9] = target: recombinant homotrimeric HA, A/Indonesia/5/05 H5N1 (Influenza A virus A/Indonesia/5/05 (H5N1)); test: trimeric HA microarray, transfection set 1
[10] = target: recombinant homotrimeric HA, A/Japan/305/57 H2N2 (Influenza A virus A/Japan/305/57 (H2N2)); test: trimeric HA microarray, transfection set 1
[11] = target: recombinant homotrimeric HA, A/Netherlands/219/03 H7N7 (Influenza A virus A/Netherlands/219/03 (H7N7)); test: trimeric HA microarray, transfection set 1
[12] = target: recombinant homotrimeric HA, A/Solomon Islands/3/06 H1N1 (Influenza A virus A/Solomon Islands/3/06 (H1N1)); test: trimeric HA microarray, transfection set 1
[13] = target: recombinant homotrimeric HA, A/South Carolina/1/18 H1N1 (Influenza A virus A/South Carolina/1/18 (H1N1)); test: trimeric HA microarray, transfection set 1
[14] = target: recombinant homotrimeric HA, A/Vietnam/1203/04 H5N1 (Influenza A virus A/Vietnam/1203/04 (H5N1)); test: trimeric HA microarray, transfection set 1
[15] = target: recombinant homotrimeric HA, A/Wisconsin/67/05 H3N2 (Influenza A virus A/Wisconsin/67/05 (H3N2)); test: trimeric HA microarray, transfection set 1
[16] = target: recombinant homotrimeric HA, A/chicken/Vietnam/NCVD-016/08 H5N1 (Influenza A virus A/chicken/Vietnam/NCVD-016/08 (H5N1)); test: trimeric HA microarray, transfection set 1
[17] = target: recombinant homotrimeric HA, A/common magpie/Hong Kong/5052/07 H5N1 (Influenza A virus A/common magpie/Hong Kong/5052/07 (H5N1)); test: trimeric HA microarray, transfection set 1
[18] = target: recombinant homotrimeric HA, A/duck/Yangzhou/02/05 H8N4 (Influenza A virus A/duck/Yangzhou/02/2005 (H8N4)); test: trimeric HA microarray, transfection set 1
[19] = target: recombinant homotrimeric HA, A/northern shoveler/California/HKWF115/07 (Influenza A virus A/northern shoveler/California/HKWF115/2007 (H6N1)); test: trimeric HA microarray, transfection set 1
[20] = target: recombinant homotrimeric HA, A/swine/Ontario/01911-2/99 H4N6 (Influenza A virus A/swine/Ontario/01911-2/99 (H4N6)); test: trimeric HA microarray, transfection set 1
[21] = target: recombinant homotrimeric HA, A/California/4/09 H1N1 (Influenza A virus A/California/4/09 (H1N1)); test: trimeric HA microarray, transfection set 4
[22] = target: recombinant homotrimeric HA, A/Indonesia/5/05 H5N1 (Influenza A virus A/Indonesia/5/05 (H5N1)); test: trimeric HA microarray, transfection set 4
[23] = target: recombinant homotrimeric HA, A/Japan/305/57 H2N2 (Influenza A virus A/Japan/305/57 (H2N2)); test: trimeric HA microarray, transfection set 4
[24] = target: recombinant homotrimeric HA, A/Solomon Islands/3/06 H1N1 (Influenza A virus A/Solomon Islands/3/06 (H1N1)); test: trimeric HA microarray, transfection set 4
[25] = target: recombinant homotrimeric HA, A/South Carolina/1/18 H1N1 (Influenza A virus A/South Carolina/1/18 (H1N1)); test: trimeric HA microarray, transfection set 4
[26] = target: recombinant homotrimeric HA, A/Vietnam/1203/04 H5N1 (Influenza A virus A/Vietnam/1203/04 (H5N1)); test: trimeric HA microarray, transfection set 4
[27] = target: recombinant homotrimeric HA, A/Wisconsin/67/05 H3N2 (Influenza A virus A/Wisconsin/67/05 (H3N2)); test: trimeric HA microarray, transfection set 4
[28] = target: recombinant homotrimeric HA, A/swine/Ontario/01911-2/99 H4N6 (Influenza A virus A/swine/Ontario/01911-2/99 (H4N6)); test: trimeric HA microarray, transfection set 4
[29] = target: recombinant soluble homotrimeric HA of A/Anhui/1/05 - H5N1 (Influenza A virus A/Anhui/1/2005 (H5N1)); test: micro-array; captured IgG, V5-tagged trimeric HA
[30] = target: hemagglutinin (HA) of influenza A/Solomon Islands/3/06 H1N1 (Influenza A virus A/Solomon Islands/3/2006 (H1N1)); test: ELISA, inactivated whole virions coated; transfection supernatant set 1
[31] = target: hemagglutinin (HA) of influenza A/Wisconsin/67/05 H3N2 (Influenza A virus A/Wisconsin/67/2005 (H3N2)); test: as above
[32] = target: hemagglutinin (HA) of influenza A/Solomon Islands/3/06 H1N1 (Influenza A virus A/Solomon Islands/3/2006 (H1N1)); test: ELISA, inactivated whole virions coated; transfection supernatant set 5
[33] = target: hemagglutinin (HA) of influenza A/Wisconsin/67/05 H3N2 (Influenza A virus A/Wisconsin/67/2005 (H3N2)); test: as above

Substance: TCN-202 (2N9) (antibody)
- % Neutralization [1]: 0%
- % Neutralization [2]: 0% and 7%
- % Neutralization [3]: 17.8% and 0%
- Trimeric HA Binding RLU [4]: 20 RLU
- Trimeric HA Binding RLU [5]: 20 RLU
- Trimeric HA Binding RLU [6]: 76 RLU
- Trimeric HA Binding RLU [7]: 21 RLU
- Trimeric HA Binding RLU [8]: 24 RLU
- Trimeric HA Binding RLU [9]: 57 RLU
- Trimeric HA Binding RLU [10]: 27 RLU
- Trimeric HA Binding RLU [11]: 55 RLU
- Trimeric HA Binding RLU [12]: 67 RLU
- Trimeric HA Binding RLU [13]: 32 RLU
- Trimeric HA Binding RLU [14]: 37 RLU
- Trimeric HA Binding RLU [15]: 27 RLU
- Trimeric HA Binding RLU [16]: 14 RLU
- Trimeric HA Binding RLU [17]: 21 RLU
- Trimeric HA Binding RLU [18]: 26 RLU
- Trimeric HA Binding RLU [19]: 13 RLU
- Trimeric HA Binding RLU [20]: 29 RLU
- Trimeric HA Binding RLU [21]: 94 RLU
- Trimeric HA Binding RLU [22]: 19 RLU
- Trimeric HA Binding RLU [23]: 334 RLU
- Trimeric HA Binding RLU [24]: 34 RLU
- Trimeric HA Binding RLU [25]: 27 RLU
- Trimeric HA Binding RLU [26]: 67 RLU
- Trimeric HA Binding RLU [27]: 125 RLU
- Trimeric HA Binding RLU [28]: 157 RLU
- Trimeric HA Binding: RLU [29]: 10000 RLU
- OD450 [30]: 0.07 OD450
- OD450 [31]: 0.07 OD450
- OD450 [32]: 0.07 OD450
- OD450 [33]: 0.07 OD450

Source: patent US20120207760A1
